Publication PMC9678776, “A higher plant FAD synthetase is fused to an inactivated FAD pyrophosphatase” (The Journal of Biological Chemistry, 2022)

How the values were obtained:
[1] = biological target: T1, AtFADS1^trunc (Arabidopsis thaliana, UniProt Q9LZE4); experiment: HPLC-fluorescence FAD synthetase assay, substrate-inhibition fit; type: biochemical; settings: substrate inhibition by FMN; ATP, zinc acetate 2 mM above ATP, Hepes-NaOH pH 7.0, 30 °C
T1 construct: gene FADS1; N-terminal FAD synthetase domain only, starting at native Met1
T1 sequence (Q9LZE4 1-254 limits assumed): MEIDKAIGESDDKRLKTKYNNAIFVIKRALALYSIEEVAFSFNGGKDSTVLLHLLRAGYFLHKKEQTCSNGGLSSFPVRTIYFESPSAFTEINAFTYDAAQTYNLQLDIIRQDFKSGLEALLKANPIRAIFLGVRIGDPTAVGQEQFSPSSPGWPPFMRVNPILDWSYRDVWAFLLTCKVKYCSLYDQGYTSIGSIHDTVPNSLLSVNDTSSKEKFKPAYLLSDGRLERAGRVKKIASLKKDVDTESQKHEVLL
Description: HPLC-fluorescence FAD synthetase assay, substrate-inhibition fit on AtFADS1^trunc

[2] = biological target: T2, CrFADS1 (Chlamydomonas reinhardtii, UniProt A0A2K3D179); experiment: as above; type: biochemical; settings: substrate inhibition by FMN; 10 mM ATP, zinc acetate 2 mM above ATP, Hepes-NaOH pH 7.0, 30 °C
T2 construct: gene FADS1; bifunctional fusion
T2 sequence (A0A2K3D179 1-582): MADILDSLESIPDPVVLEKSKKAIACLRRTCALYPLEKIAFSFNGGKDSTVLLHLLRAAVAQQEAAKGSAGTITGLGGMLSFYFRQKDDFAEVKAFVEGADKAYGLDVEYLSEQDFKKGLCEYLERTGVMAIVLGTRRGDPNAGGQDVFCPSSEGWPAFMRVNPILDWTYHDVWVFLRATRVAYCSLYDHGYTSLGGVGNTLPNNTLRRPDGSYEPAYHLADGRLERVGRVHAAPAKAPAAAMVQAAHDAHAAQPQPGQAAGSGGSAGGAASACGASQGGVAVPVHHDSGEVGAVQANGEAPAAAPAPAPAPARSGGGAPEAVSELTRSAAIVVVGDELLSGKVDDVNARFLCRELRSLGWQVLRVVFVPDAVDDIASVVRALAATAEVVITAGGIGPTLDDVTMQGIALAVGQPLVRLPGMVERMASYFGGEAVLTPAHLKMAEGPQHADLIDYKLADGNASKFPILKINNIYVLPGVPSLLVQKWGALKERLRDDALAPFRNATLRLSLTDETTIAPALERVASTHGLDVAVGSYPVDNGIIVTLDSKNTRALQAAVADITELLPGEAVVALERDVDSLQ
Description: (§1) HPLC-fluorescence FAD synthetase assay, substrate-inhibition fit on CrFADS1

[3] = biological target: T3, AtFADS1 (Arabidopsis thaliana, UniProt Q9LZE4); experiment: as above; type: biochemical; settings: substrate inhibition by FMN; 10 mM ATP, zinc acetate 2 mM above ATP, Hepes-NaOH pH 7.0, 30 °C
T3 construct: gene FADS1; N-terminus from primer MEIDKA
T3 sequence (Q9LZE4 1-497): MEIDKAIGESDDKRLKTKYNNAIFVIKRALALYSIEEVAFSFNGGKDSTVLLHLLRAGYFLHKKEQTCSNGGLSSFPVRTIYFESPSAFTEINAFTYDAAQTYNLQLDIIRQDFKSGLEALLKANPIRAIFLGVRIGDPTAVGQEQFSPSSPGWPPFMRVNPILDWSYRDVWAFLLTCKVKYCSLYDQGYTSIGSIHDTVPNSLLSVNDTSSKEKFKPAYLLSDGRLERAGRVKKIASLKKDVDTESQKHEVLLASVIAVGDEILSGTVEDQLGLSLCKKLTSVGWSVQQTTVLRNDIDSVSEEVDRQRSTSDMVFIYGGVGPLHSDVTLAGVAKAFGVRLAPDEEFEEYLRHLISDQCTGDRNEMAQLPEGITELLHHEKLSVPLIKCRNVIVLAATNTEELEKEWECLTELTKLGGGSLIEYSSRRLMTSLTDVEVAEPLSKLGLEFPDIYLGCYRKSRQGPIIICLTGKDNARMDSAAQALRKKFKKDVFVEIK
Description: HPLC-fluorescence FAD synthetase assay, substrate-inhibition fit on AtFADS1

[4] = substrate: Cc1cc2nc3c(=O)[nH]c(=O)nc-3n(C[C@H](O)[C@H](O)[C@H](O)COP(=O)(O)O)c2cc1C; experiment: as above; type: biochemical, Chlamydomonas reinhardtii; settings: FAD synthetase activity, 10 mM ATP, zinc acetate 2 mM above ATP, Hepes-NaOH pH 7.0, 30 °C
Description: as §1

[5] = substrate: Cc1cc2nc3c(=O)[nH]c(=O)nc-3n(C[C@H](O)[C@H](O)[C@H](O)COP(=O)(O)OP(=O)(O)OC[C@H]3O[C@@H](n4cnc5c(N)ncnc54)[C@H](O)[C@@H]3O)c2cc1C; experiment: HPLC-fluorescence FAD pyrophosphatase assay, Michaelis-Menten; type: biochemical, Chlamydomonas reinhardtii; settings: FAD pyrophosphatase activity, 2 mM CoCl2, 200 mM KCl, Hepes-NaOH pH 7.0, 30 °C
Description: HPLC-fluorescence FAD pyrophosphatase assay, Michaelis-Menten on […]1

[6] = substrate: Nc1ncnc2c1ncn2[C@@H]1O[C@H](COP(=O)(O)OP(=O)(O)OP(=O)(O)O)[C@@H](O)[C@H]1O; experiment: HPLC-fluorescence FAD synthetase assay, Michaelis-Menten; type: biochemical, Arabidopsis thaliana; settings: FAD synthetase activity, 15 μM FMN, zinc acetate 2 mM above ATP, Hepes-NaOH pH 7.0, 30 °C
Description: HPLC-fluorescence FAD synthetase assay, Michaelis-Menten on […]1

Cc1cc2nc3c(=O)[nH]c(=O)nc-3n(C[C@H](O)[C@H](O)[C@H](O)COP(=O)(O)O)c2cc1C [FMN]
Ki [1]: 32.7 ± 18.2 µM | Ki [2]: 336 ± 66 µM | Ki [3]: 190 ± 36 µM

B1: CrFADS1 (Chlamydomonas reinhardtii) (protein)
chain: T2 sequence (A0A2K3D179 1-582)
notes: bifunctional fusion
Km [4]: 0.54 ± 0.09 µM | kcat [4]: 0.103 ± 0.004 s⁻¹ | kcat/Km [4]: 191000 ± 33000 M⁻¹ s⁻¹ | Km [5]: 4.88 ± 0.56 µM | kcat [5]: 0.395 ± 0.011 s⁻¹ | kcat/Km [5]: 81000 ± 9600 M⁻¹ s⁻¹

B2: AtFADS1 (Arabidopsis thaliana) (protein)
chain: T3 sequence (Q9LZE4 1-497)
notes: N-terminus from primer MEIDKA
Km [6]: 665 ± 11 µM | kcat [6]: 0.287 ± 0.011 s⁻¹ | kcat/Km [6]: 432 ± 18 M⁻¹ s⁻¹
